Source: publication PMC3988998, “Molecular Mechanism of Antibody-Mediated Activation of β-galactosidase” (Structure(London, England:1993), 2014)

Biological target: T1, Escherichia coli β-galactosidase (E. coli, UniProt P00722 = β-galactosidase)
T1 construct: β-galactosidase of E. coli, encoded by lacZ; Wild-type commercial enzyme; source: bought: Sigma catalog no; G3153
Experiment: cryo-EM structure; β-gal mixed with scFv13R4 in a 1:10 stoichiometric ratio (2.5-fold excess), 1 hr on ice; single-particle cryo-EM, map at ~13 Å; rigid-body docking of β-gal (1F4A) and of the HyHEL-10 Fv (3A6B)
Conditions: both partners purified

T1 sequence (P00722 whole entry): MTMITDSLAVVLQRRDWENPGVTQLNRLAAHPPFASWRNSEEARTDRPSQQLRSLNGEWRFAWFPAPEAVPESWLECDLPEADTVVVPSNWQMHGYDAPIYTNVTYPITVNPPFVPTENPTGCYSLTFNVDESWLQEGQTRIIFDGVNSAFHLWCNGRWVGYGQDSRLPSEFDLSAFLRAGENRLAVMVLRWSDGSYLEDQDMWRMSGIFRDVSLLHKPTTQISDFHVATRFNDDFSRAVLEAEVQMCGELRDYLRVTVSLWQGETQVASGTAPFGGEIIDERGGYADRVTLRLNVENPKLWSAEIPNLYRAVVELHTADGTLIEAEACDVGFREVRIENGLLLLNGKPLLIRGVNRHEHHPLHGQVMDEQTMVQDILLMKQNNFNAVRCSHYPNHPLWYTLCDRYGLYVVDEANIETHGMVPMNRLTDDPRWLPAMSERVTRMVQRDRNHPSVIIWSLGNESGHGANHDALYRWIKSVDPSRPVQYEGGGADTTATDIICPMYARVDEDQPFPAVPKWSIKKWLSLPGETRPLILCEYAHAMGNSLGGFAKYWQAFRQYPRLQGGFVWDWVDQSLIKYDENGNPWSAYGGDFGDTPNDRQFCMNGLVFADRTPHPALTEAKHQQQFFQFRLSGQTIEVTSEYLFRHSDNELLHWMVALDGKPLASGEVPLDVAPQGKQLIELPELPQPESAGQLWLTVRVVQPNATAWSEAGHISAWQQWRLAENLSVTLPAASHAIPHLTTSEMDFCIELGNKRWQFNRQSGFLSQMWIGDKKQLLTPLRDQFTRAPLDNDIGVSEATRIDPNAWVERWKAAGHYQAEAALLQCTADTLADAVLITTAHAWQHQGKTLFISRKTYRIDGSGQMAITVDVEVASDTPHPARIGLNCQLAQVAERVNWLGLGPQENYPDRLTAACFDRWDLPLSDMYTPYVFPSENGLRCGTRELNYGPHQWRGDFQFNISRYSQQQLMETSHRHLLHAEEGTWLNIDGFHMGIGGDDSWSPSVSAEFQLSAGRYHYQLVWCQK

B1: scFv13R4 (scFv, V domains shown)
VH: EVQLVESGGSLVKPGGSLRLSCAASGFTFSNYSMNWVRQAPGKGLEWISSISGSSRYIYYADFVKGRFTISRDNATNSLYLQMNSLRAEDTAVYYCVRSSITIFGGGMDVWGRGTLVTVSS
VL: QSVLTQPASVSGSPGQSITISCAGTSSDVGGYNYVSWYQQHPGKAPKLMIYEDSKRPSGVSNRFSGSKSGNTASLTISGLQAEDEADYYCSSYTTRSTRVFGGGTKLAVL
notes: model of the complex deposited as PDB 4CKD, built by docking the HyHEL-10 Fv of PDB 3A6B; 28 kDa single-chain Fv selected for cytoplasmic expression (Martineau et al., 1998); The preparation held GroEL as an impurity; also called Fv antibody; source: E. coli strain PM12 (BL21 (DE3) pLysS with a lacZ:Tn5 mutation), pET 16b, purified (nickel-nitrilotriacetic acid column)
  stoichiometry N: 1 Fv per β-gal subunit
